Patent publication US20250101098A1 (R P SCHERER TECHNOLOGIES, published 2025)

T1: recombinant human Nectin-4-His protein (human, UniProt Q96NY8 32-349)
T1 construct: Rescreening antigen and bought ELISA antigen are treated as one molecule; also called human Nectin-4-His tagged; Ag1; not shown: His tag
T1 sequence: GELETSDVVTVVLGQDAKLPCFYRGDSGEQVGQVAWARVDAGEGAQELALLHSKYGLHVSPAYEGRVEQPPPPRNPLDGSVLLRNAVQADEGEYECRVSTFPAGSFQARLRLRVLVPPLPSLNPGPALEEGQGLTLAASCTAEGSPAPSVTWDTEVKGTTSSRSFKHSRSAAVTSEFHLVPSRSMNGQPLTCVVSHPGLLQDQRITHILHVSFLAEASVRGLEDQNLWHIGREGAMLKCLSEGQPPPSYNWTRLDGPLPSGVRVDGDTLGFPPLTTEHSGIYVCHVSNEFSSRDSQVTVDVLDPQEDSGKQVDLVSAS

T2: human nectin-4 protein expressed on the surface of cells (human, UniProt Q96NY8 32-510)
T2 sequence: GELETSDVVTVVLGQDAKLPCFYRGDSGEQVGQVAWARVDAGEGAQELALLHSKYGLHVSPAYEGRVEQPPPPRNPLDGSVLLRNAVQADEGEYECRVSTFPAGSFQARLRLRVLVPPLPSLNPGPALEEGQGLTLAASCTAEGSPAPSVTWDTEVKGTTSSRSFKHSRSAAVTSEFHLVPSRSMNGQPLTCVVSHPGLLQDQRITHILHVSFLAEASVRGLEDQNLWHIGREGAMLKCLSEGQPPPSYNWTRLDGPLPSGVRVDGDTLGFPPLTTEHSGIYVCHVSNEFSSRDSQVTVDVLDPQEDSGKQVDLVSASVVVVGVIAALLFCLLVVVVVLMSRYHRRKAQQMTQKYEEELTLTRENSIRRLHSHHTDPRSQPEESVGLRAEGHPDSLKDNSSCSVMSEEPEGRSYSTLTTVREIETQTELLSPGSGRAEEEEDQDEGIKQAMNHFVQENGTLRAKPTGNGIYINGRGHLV


Experiments:
[1] = molecular target: T1, recombinant human Nectin-4-His protein; experiment: ELISA, coated antigen
[2] = molecular target: T2, human nectin-4 protein expressed on the …; experiment: cell-based or functional assay

Binder	EC50 [1] [nM]	Cell kill IC50, HekNectin4 [2] [nM]	Cell kill IC50, MDA-MB468 [2] [nM]	Cell kill IC50, SKBR3 [2] [nM]
Nectin-4 5D9 VH1/VL1 (antibody, V domains shown, Humanized; also called 5D9 VH variant 1 / 5D9 VL variant 1) VH: QVQLKESGPGLVQPSETLSLTCTVSGFSITNYGVHWIRQSPGKGLEWLGVIWSGGSTDYNAAFVSRVTISRDNSKSQVFFKLNSVQADDTAVYYCARSGKWYYFDYWGQGTTVTVSS VL: DIQMTQSPASLSASVGDTVTITCRASQNIYSNLAWYQQKQGKSPQLLVYAATNLADGVPSRFSGSGSGTQYTLKINSLQSEDFGTYYCQHFWGTPTFGGGTKVEIK	0.225	0.249	1.42	15
Nectin-4 5D9 VH1/VL4 (antibody, V domains shown, Humanized; also called 5D9 VH variant 1 / 5D9 VL variant 4) VH: QVQLKESGPGLVQPSETLSLTCTVSGFSITNYGVHWIRQSPGKGLEWLGVIWSGGSTDYNAAFVSRVTISRDNSKSQVFFKLNSVQADDTAVYYCARSGKWYYFDYWGQGTTVTVSS VL: DIQMTQSPSSLSASVGDRVTITCRASENIYSNLAWYQQKPGKAPKLLVYAATNLADGVPSRFSGSGSGTDYTLTISSLQPEDFATYYCQHFWGTPTFGGGTKVEIK	0.228	0.277	5.17	9.02
Nectin-4 5D9 VH1/VL5 (antibody, V domains shown, Humanized; also called 5D9 VH variant 1 / 5D9 VL variant 5) VH: QVQLKESGPGLVQPSETLSLTCTVSGFSITNYGVHWIRQSPGKGLEWLGVIWSGGSTDYNAAFVSRVTISRDNSKSQVFFKLNSVQADDTAVYYCARSGKWYYFDYWGQGTTVTVSS VL: DIQMTQSPSSLSASVGDRVTITCRASQSIYSNLAWYQQKPGKAPKLLVYAATNLQSGVPSRFSGSGSGTDFTLTISSLQPEDFATYYCQHFWGTPTFGGGTKVEIK	0.346	1.41	10.2	10.1
Nectin-4 5D9 VH1/VL3 (antibody, V domains shown, Humanized; also called 5D9 VH variant 1 / 5D9 VL variant 3) VH: QVQLKESGPGLVQPSETLSLTCTVSGFSITNYGVHWIRQSPGKGLEWLGVIWSGGSTDYNAAFVSRVTISRDNSKSQVFFKLNSVQADDTAVYYCARSGKWYYFDYWGQGTTVTVSS VL: DIQMTQSPSSLSASVGDRVTITCRASQSIYSNLAWYQQKPGKAPKLLVYAATNLASGVPSRFSGSGSGTDFTLTISSLQPEDFATYYCQHFWGTPTFGGGTKVEIK	0.321	2.94	10.3	9.36
Nectin-4 5D9 VH2/VL2 (antibody, V domains shown, Humanized; also called 5D9 VH variant 2 / 5D9 VL variant 2) VH: QVQLQESGPGLVKPSETLSLTCTVSGFSITNYGVHWIRQPPGKGLEWLGVIWSGGSTDYNASLVSRVTISRDTSKSQFFLKLNSVQADDTAVYYCARSGKWYYFDYWGQGTTVTVSS VL: DIQMTQSPSSLSASVGDTVTITCRASQNIYSNLAWYQQKQGKAPKLLVYAATNLADGVPSRFSGSGSGTDFTLKINSLQPEDFATYYCQHFWGTPTFGGGTKVEIK	172	55.5	19.3	14.4
Nectin-4 5D9 VH2/VL1 (antibody, V domains shown, Humanized; also called 5D9 VH variant 2 / 5D9 VL variant 1) VH: QVQLQESGPGLVKPSETLSLTCTVSGFSITNYGVHWIRQPPGKGLEWLGVIWSGGSTDYNASLVSRVTISRDTSKSQFFLKLNSVQADDTAVYYCARSGKWYYFDYWGQGTTVTVSS VL: DIQMTQSPASLSASVGDTVTITCRASQNIYSNLAWYQQKQGKSPQLLVYAATNLADGVPSRFSGSGSGTQYTLKINSLQSEDFGTYYCQHFWGTPTFGGGTKVEIK	0.279	3.93	21.4	14.7
Nectin-4 5D9 VH1/VL2 (antibody, V domains shown, Humanized; also called 5D9 VH variant 1 / 5D9 VL variant 2) VH: QVQLKESGPGLVQPSETLSLTCTVSGFSITNYGVHWIRQSPGKGLEWLGVIWSGGSTDYNAAFVSRVTISRDNSKSQVFFKLNSVQADDTAVYYCARSGKWYYFDYWGQGTTVTVSS VL: DIQMTQSPSSLSASVGDTVTITCRASQNIYSNLAWYQQKQGKAPKLLVYAATNLADGVPSRFSGSGSGTDFTLKINSLQPEDFATYYCQHFWGTPTFGGGTKVEIK	0.368	3.35	10.3	9.85
Nectin-4 5D9 VH3/VL3 (antibody, V domains shown, Humanized; also called 5D9 VH variant 3 / 5D9 VL variant 3) VH: QVQLQESGPGLVKPSETLSLTCTVSGGSITNYGVHWIRQPPGKGLEWLGVIWSGGSTDYNPSLKSRVTISVDTSKNQFSLKLSSVTAADTAVYYCARSGKWYYFDYWGQGTLVTVSS VL: DIQMTQSPSSLSASVGDRVTITCRASQSIYSNLAWYQQKPGKAPKLLVYAATNLASGVPSRFSGSGSGTDFTLTISSLQPEDFATYYCQHFWGTPTFGGGTKVEIK	23.9	27.1	15.6	10.6
Nectin-4 5D9 VH3/VL2 (antibody, V domains shown, Humanized; also called 5D9 VH variant 3 / 5D9 VL variant 2) VH: QVQLQESGPGLVKPSETLSLTCTVSGGSITNYGVHWIRQPPGKGLEWLGVIWSGGSTDYNPSLKSRVTISVDTSKNQFSLKLSSVTAADTAVYYCARSGKWYYFDYWGQGTLVTVSS VL: DIQMTQSPSSLSASVGDTVTITCRASQNIYSNLAWYQQKQGKAPKLLVYAATNLADGVPSRFSGSGSGTDFTLKINSLQPEDFATYYCQHFWGTPTFGGGTKVEIK	8.62	54.8	17.7	15.3
Nectin-4 5D9 VH4/VL3 (antibody, V domains shown, Humanized; also called 5D9 VH variant 4 / 5D9 VL variant 3) VH: QVQLQQSGPGLVKPSETLSLTCTVSGFSLTNYGVHWVRQPPGKGLEWLGVIWSGGSTDYNPSLKSRLTISRDTSKNQVSFKMSSVTAADTAVYYCARSGKWYYFDYWGQGTLVTVSS VL: DIQMTQSPSSLSASVGDRVTITCRASQSIYSNLAWYQQKPGKAPKLLVYAATNLASGVPSRFSGSGSGTDFTLTISSLQPEDFATYYCQHFWGTPTFGGGTKVEIK	0.204	0.333	3.71	6.46
Nectin-4 5D9 VH3/VL4 (antibody, V domains shown, Humanized; also called 5D9 VH variant 3 / 5D9 VL variant 4) VH: QVQLQESGPGLVKPSETLSLTCTVSGGSITNYGVHWIRQPPGKGLEWLGVIWSGGSTDYNPSLKSRVTISVDTSKNQFSLKLSSVTAADTAVYYCARSGKWYYFDYWGQGTLVTVSS VL: DIQMTQSPSSLSASVGDRVTITCRASENIYSNLAWYQQKPGKAPKLLVYAATNLADGVPSRFSGSGSGTDYTLTISSLQPEDFATYYCQHFWGTPTFGGGTKVEIK	43600	41.1	40.5	26
Nectin-4 5D9 VH2/VL3 (antibody, V domains shown, Humanized; also called 5D9 VH variant 2 / 5D9 VL variant 3) VH: QVQLQESGPGLVKPSETLSLTCTVSGFSITNYGVHWIRQPPGKGLEWLGVIWSGGSTDYNASLVSRVTISRDTSKSQFFLKLNSVQADDTAVYYCARSGKWYYFDYWGQGTTVTVSS VL: DIQMTQSPSSLSASVGDRVTITCRASQSIYSNLAWYQQKPGKAPKLLVYAATNLASGVPSRFSGSGSGTDFTLTISSLQPEDFATYYCQHFWGTPTFGGGTKVEIK	108	33.7	21.4	15.9
Nectin-4 5D9 VH3/VL5 (antibody, V domains shown, Humanized; also called 5D9 VH variant 3 / 5D9 VL variant 5) VH: QVQLQESGPGLVKPSETLSLTCTVSGGSITNYGVHWIRQPPGKGLEWLGVIWSGGSTDYNPSLKSRVTISVDTSKNQFSLKLSSVTAADTAVYYCARSGKWYYFDYWGQGTLVTVSS VL: DIQMTQSPSSLSASVGDRVTITCRASQSIYSNLAWYQQKPGKAPKLLVYAATNLQSGVPSRFSGSGSGTDFTLTISSLQPEDFATYYCQHFWGTPTFGGGTKVEIK	7.23	40	43.3	14.9
Nectin-4 5D9 VH2/VL5 (antibody, V domains shown, Humanized; also called 5D9 VH variant 2 / 5D9 VL variant 5) VH: QVQLQESGPGLVKPSETLSLTCTVSGFSITNYGVHWIRQPPGKGLEWLGVIWSGGSTDYNASLVSRVTISRDTSKSQFFLKLNSVQADDTAVYYCARSGKWYYFDYWGQGTTVTVSS VL: DIQMTQSPSSLSASVGDRVTITCRASQSIYSNLAWYQQKPGKAPKLLVYAATNLQSGVPSRFSGSGSGTDFTLTISSLQPEDFATYYCQHFWGTPTFGGGTKVEIK	14.7	182	252	234
